Assay results as given in patent publication US20130045267A1, “METHODS OF USING AGENTS THAT MODULATE CLAUDIN EXPRESSION” (priority 2010, published 2013).

Test system: claudin-1 transcripts
Assay: qPCR of claudin-1 transcripts after siRNA transfection of PHK
Assay type: cell-based, human
Conditions: siRNA 100 nM
Procedure: QPCR was performed using the iScript™ cDNA Synthesis kit and iQ™ SYBER Green Supermix assay system (Bio-Rad Laboratories). All PCR amplifications were carried out in triplicate on an iQ5 Multicolor real-time PCR detection system (Bio-Rad). Primers were designed and synthesized by Integrated DNA Technologies (Table 1). Relative gene expression was calculated by using the 2^−ΔΔCt method. Livak and Schmittgen, “Analysis of Relative Gene Expression Data Using Real-Time Quantitative PCR and the 2(−Delta Delta C(T)) Method,” Methods 25:402-8 (2001), which is hereby incoporated by reference in its entirety. The normalized Ct value of each sample was calculated using GAPDH as an endogenous control gene.
PHK were plated on glass coverslips at 2-3×10^5 cells/well in a 6-well plate or at 2-3×10^4 cells/filter in Transwell insert (Costar; PET membrane, 0.4 μm pore size, 6.5 mm insert) in Keratinocyte-SFM without antibiotics. The next day after plating, cells were transfected with claudin-1 specific or control (scrambled) siRNAs (Santa Cruz) using Lipofectamine™ 2000 transfection Reagent (Invitrogen). TEER and permeability experiments were conducted 48 hours after PHK were switched to differentiation media.
siRNA approach was used to selectively downregulate claudin-1 in primary human keratinocytes (PHK). […] There was no effect on mRNA expression of occludin, ZO-1, nectin-1, E-cadherin or filaggrin (n=5/group). Relative gene expressions were calculated by using the 2^−ΔΔCt method, in which Ct indicates cycle threshold, the fractional cycle number where the fluorescent signal reaches detection threshold. The normalized Ct value of each sample was calculated using GAPDH as endogenous control gene. The specific sequence information for the claudin-1 siRNA (h) is detailed below. (This siRNA is a pool of 3 separate strands.)

B1: CLDN1 siRNA: claudin-1 specific siRNA (Santa Cruz), a pool of 3 separate strands, SEQ ID NO: 10-15 (nucleic acid)
chain 1: UACAUAGGCAUAGUUCAUGNN
chain 2: CAUGAACUAUGCCUAUGUANN
chain 3: AACGUAUGCAGUUAAUUCCNN
chain 4: GGAAUUAACUGCAUACGUUNN
chain 5: UGAAGAUCUAUGUAUGUGGNN
chain 6: CCACAUACAUAGAUCUUCANN
modifications: chemistry not given here
reduction in claudin-1 transcripts compared to control transfected cells: 50% | claudin-1 transcripts (MEAN±SEM) (n=5/group): 5.42±0.8 RVU | claudin-1 transcripts relative to control transfected cells (n=5/group): 0.5 fold | claudin-1 transcripts relative to control transfected cells (n=5/group, listed as Cldn1 siRNA): 0.5%±0.06 fold
